According to US20050107296A1 (INSTITUT DES VAISSEAUX ET DU SANG, published 2005):

Target: T1, soluble HGF-R, chimeric fusion protein (HGF-R/IgG) comprising the HGF-binding portion of the extracellular … (UniProt P08581 25-932, limits assumed)
T1 construct: also called c-Met; not shown: a portion of IgG
Experiment: SPR (BIAcore 2000), N immobilized on the sensor chip, soluble HGF-R/IgG injected at three different doses

T1 sequence (P08581 25-932 limits assumed, change not shown): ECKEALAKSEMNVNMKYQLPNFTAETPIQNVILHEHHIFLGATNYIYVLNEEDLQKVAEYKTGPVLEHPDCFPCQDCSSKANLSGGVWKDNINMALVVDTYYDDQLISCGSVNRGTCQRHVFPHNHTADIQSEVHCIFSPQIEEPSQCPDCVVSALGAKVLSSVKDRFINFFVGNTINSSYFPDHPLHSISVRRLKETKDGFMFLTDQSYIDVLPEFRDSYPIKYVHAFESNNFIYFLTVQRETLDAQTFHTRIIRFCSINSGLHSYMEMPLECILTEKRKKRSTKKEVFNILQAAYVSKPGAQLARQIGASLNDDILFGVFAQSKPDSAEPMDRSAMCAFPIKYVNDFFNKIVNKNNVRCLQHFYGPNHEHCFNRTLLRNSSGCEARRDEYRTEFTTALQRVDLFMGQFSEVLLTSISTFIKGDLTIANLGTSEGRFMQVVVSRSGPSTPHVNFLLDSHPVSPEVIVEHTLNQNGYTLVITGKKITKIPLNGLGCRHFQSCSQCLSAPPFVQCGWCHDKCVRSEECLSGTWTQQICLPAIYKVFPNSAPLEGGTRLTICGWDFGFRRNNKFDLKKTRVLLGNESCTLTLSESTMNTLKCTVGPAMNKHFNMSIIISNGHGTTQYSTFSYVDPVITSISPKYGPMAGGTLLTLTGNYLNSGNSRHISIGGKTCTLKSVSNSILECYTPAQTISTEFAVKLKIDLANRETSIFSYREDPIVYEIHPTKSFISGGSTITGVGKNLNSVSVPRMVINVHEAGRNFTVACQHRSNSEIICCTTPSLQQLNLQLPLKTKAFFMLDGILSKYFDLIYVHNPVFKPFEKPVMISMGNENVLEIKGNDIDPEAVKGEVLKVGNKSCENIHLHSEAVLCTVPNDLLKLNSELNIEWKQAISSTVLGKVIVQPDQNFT

B1: peptide N derived from the HGF α-chain (hairpin-loop domain of HGF, N-terminal Gln instead of PyrGlu) (peptide)
chain: QRKRRNTIHEFKKSAKTTLIKIDPALKIKTKKVNTADQCANRCTRNKGLPFTCKAFVFDKARKQCLWFPFNSMSSGVKKEFGHEFDLYENKDYIRN
notes: Expressed in E. coli and purified; In Assay 6 it was immobilized on the BIAcore sensor chip; also called Ex 1
binding result: no binding
